Reference: US20120115741A1 (BRACCO IMAGING S P A, published 2012)

Tests used:
Test in all cases: phage ELISA, Fab adsorbed on plate, peptide-displaying phage added, anti-M13-HRP detection
[1] = target: T1, Phage-displayed dodecapeptide of SEQ ID NO 5 (Ph.D.-12 library clone) (filamentous phage M13)
T1 construct: In the screening ELISA the peptide stood on whole M13 phage particles, not as a free peptide; not shown: cpIII coat protein of the filamentous phage M13; the dodecapeptide is at its N-terminus
T1 peptide: TMGFTAPRFPHY

[2] = target: T2, Phage-displayed dodecapeptide of SEQ ID NO 6 (Ph.D.-12 library clone) (filamentous phage M13)
T2 construct: In the screening ELISA the peptide stood on whole M13 phage particles, not as a free peptide; not shown: cpIII coat protein of the filamentous phage M13; the dodecapeptide is at its N-terminus
T2 peptide: MQSPFTPHFAER

[3] = target: T3, Phage-displayed dodecapeptide of SEQ ID NO 7 (Ph.D.-12 library clone) (filamentous phage M13)
T3 construct: In the screening ELISA the peptide stood on whole M13 phage particles, not as a free peptide; not shown: cpIII coat protein of the filamentous phage M13; the dodecapeptide is at its N-terminus
T3 peptide: MQSPIVLPLSLS

[4] = target: T4, Phage-displayed dodecapeptide of SEQ ID NO 8 (Ph.D.-12 library clone) (filamentous phage M13)
T4 construct: In the screening ELISA the peptide stood on whole M13 phage particles, not as a free peptide; not shown: cpIII coat protein of the filamentous phage M13; the dodecapeptide is at its N-terminus
T4 peptide: HHEPGAWLPLSP

Measured: OD450nm

B1: Fab 68 (soluble Fab, heavy chain clone 6 and light chain clone 8 from a coronary plaque sample) (Fab, V domains shown)
VH: LEESGAEVKKPGENLKISCEASGYNFVNHWIGWVRQMPGRGLEWMGRIYPGDSETRFSPSFQGQVTISVDKTLSTASLQWNSLKTSDSATYYCVTLGRWSSWQGGALSWGQGT
VL: ELTQSPATVSVSPGERATLSCRASQSISFHLAWYQQKPGQAPSLLIYGTSTRATGIPARFSGSGSGTEFTLTISSLQSEDSAVYYCQQYHNWPPLTFGGGT
notes: also called Fab of the invention; Fabs of the present invention
> 1 OD450nm: all assays above
